Measured values: PMC8492665, “An apple (Malus domestica) AP2/ERF transcription factor modulates carotenoid accumulation”

Molecular target: MdAP2-34 (Malus domestica, UniProt A0A678SKA5 1-366)
Assay: EMSA; LightShift Chemiluminescent EMSA Kit (Thermo Fisher); buffer, salt, pH and temperature not stated
Conditions: protein: recombinant; tags: GST (pGEX-4T-1, N-terminal); label: 5' biotin; blunt

MdAP2-34, sequence (A0A678SKA5 entry or part of it): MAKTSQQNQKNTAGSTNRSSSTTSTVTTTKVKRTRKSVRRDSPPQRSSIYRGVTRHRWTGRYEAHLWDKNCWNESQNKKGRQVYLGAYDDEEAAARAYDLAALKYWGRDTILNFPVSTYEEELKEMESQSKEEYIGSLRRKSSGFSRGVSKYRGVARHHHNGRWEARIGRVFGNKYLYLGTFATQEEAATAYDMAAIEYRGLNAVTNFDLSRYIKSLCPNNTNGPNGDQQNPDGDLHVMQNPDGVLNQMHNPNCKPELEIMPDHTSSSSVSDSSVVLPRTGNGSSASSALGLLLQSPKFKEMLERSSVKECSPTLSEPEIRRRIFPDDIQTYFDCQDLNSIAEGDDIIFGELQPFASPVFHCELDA

B1: MdPSY2-1 promoter hot probe (dsDNA)
DNA 1: CTTTTCTTCTCTCAGTACATGCACCGACGTCGATATTAACCTTGGAACCT
DNA 2: AGGTTCCAAGGTTAATATCGACGTCGGTGCATGTACTGAGAGAAGAAAAG
- binding result: binds
